Target: HLA-A2 (HLA-A*02:01) on cells (T2 cells; K562A2 cells) (human)
Experiment: T2 peptide-binding assay: T2 cells with peptide at 100 µg/mL overnight, surface HLA-A2 by flow cytometry (T2 only: 3.34E+05)
Details: remark: other sources report otherwise

## NTDNNLAVY (peptide, UniProt Q5H943 52-60, looked up) [KKLC1 p52-60 peptide (HLA-A1 restricted control), Q5H943 52-60]
  Mean Fluorescence Intensity (surface HLA-A2): 305000

From patent publication US20240239864A1
